# In paper PMC9482650, “Quantitative fragmentomics allow affinity mapping of interactomes” (Nature Communications, 2022):
# T1: APBA1_1, Q02410
# T1 sequence (Q02410 651-752, limits assumed, looked up): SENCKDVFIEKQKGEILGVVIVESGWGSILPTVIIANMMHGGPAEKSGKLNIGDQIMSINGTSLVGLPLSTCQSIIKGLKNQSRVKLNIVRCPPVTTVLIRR
# T2: APBA2_2, Q99767
# T2 sequence (Q99767 654-744, limits assumed, looked up): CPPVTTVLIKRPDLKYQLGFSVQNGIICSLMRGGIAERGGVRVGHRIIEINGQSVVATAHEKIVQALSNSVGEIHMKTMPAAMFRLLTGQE
# T3: DFNB31_2, Q9P202
# T3 sequence (Q9P202 274-371, limits assumed, looked up): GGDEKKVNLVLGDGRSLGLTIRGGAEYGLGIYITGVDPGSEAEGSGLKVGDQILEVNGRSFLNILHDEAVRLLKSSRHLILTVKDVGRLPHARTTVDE
# T4: DFNB31_3, Q9P202
# T4 sequence (Q9P202 811-907, limits assumed, looked up): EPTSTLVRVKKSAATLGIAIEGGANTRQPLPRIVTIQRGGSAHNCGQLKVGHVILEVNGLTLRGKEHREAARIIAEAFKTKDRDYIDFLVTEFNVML
# T5: GRIP1_3, Q9Y3R0
# T5 sequence (Q9Y3R0 247-346, limits assumed, looked up): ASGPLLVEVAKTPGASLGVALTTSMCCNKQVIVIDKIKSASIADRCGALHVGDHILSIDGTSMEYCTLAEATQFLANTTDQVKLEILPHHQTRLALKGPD
# T6: GRIP1_7, Q9Y3R0
# T6 sequence (Q9Y3R0 999-1096, limits assumed, looked up): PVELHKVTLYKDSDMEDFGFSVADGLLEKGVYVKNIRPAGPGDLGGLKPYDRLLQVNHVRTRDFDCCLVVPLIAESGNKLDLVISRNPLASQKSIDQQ
# T7: MPDZ_12, O75970
# T7 sequence (O75970 1857-1958, limits assumed, looked up): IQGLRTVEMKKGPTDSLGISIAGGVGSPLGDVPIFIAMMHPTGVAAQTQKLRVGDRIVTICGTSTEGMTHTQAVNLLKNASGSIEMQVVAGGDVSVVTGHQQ
# T8: MPP6, Q9NZW5
# T8 sequence (Q9NZW5 125-219, limits assumed, looked up): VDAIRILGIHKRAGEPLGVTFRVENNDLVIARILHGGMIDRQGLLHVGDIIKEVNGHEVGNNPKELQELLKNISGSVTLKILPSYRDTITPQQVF
# T9: PDZD7_3, Q9H5P4
# T9 sequence (Q9H5P4 857-944, limits assumed, looked up): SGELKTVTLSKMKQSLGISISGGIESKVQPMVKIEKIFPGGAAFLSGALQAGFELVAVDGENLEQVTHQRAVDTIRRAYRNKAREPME
# T10: PTPN13_1, Q12923
# T10 sequence (Q12923 1088-1188, limits assumed, looked up): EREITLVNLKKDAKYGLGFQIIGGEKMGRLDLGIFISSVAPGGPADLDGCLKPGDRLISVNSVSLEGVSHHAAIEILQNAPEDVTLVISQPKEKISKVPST
# T11: SHANK1, Q9Y566
# T11 sequence (Q9Y566 658-767, limits assumed, looked up): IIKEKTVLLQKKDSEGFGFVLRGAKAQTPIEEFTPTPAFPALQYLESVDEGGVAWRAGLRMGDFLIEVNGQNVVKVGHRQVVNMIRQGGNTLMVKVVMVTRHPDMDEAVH
# T12: SYNJ2BP, P57105
# T12 sequence (P57105 8-110, limits assumed, looked up): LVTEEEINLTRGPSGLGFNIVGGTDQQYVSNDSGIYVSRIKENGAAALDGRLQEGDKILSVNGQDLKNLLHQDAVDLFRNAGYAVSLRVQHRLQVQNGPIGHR
# Key:
# Assay in all cases: holdup assay
# Design in all cases: key: below the threshold = too weak to quantify, mostly under pKd 3.1 to 4
# Details in all cases: plain residues with an end cap or a label only (N-terminal biotin on a linker: ado-ado)
# APBA1_1, Q02410 = target: T1, APBA1_1, Q02410
# APBA2_2, Q99767 = target: T2, APBA2_2, Q99767
# CASK, O14936 = target: CASK, O14936
# DFNB31_2, Q9P202 = target: T3, DFNB31_2, Q9P202
# DFNB31_3, Q9P202 = target: T4, DFNB31_3, Q9P202
# DLG4_2, P78352 = target: DLG4_2, P78352
# DLG4_3, P78352 = target: DLG4_3, P78352
# FRMPD2_2, Q68DX3 = target: FRMPD2_2, Q68DX3
# GOPC, Q9HD26 = target: GOPC, Q9HD26
# GRID2IP_1, A4D2P6 = target: GRID2IP_1, A4D2P6
# GRIP1_3, Q9Y3R0 = target: T5, GRIP1_3, Q9Y3R0
# GRIP1_7, Q9Y3R0 = target: T6, GRIP1_7, Q9Y3R0
# GRIP2_3, Q9C0E4 = target: GRIP2_3, Q9C0E4
# Inadl_8, Q8NI35 = target: Inadl_8, Q8NI35
# MAGI1_1, Q96QZ7 = target: MAGI1_1, Q96QZ7
# MAGI1_2, Q96QZ7 = target: MAGI1_2, Q96QZ7
# MAST1, Q9Y2H9 = target: MAST1, Q9Y2H9
# MPDZ_12, O75970 = target: T7, MPDZ_12, O75970
# MPP6, Q9NZW5 = target: T8, MPP6, Q9NZW5
# NHERF2_2, Q15599 = target: NHERF2_2, Q15599
# PDZD7_3, Q9H5P4 = target: T9, PDZD7_3, Q9H5P4
# PDZRN4_1, Q6ZMN7 = target: PDZRN4_1, Q6ZMN7
# PTPN13_1, Q12923 = target: T10, PTPN13_1, Q12923
# SHANK1, Q9Y566 = target: T11, SHANK1, Q9Y566
# SYNJ2BP, P57105 = target: T12, SYNJ2BP, P57105
# TJP1_3, Q07157 = target: TJP1_3, Q07157
# Chain of TJP1_3, Q07157 (Q07157 416-512): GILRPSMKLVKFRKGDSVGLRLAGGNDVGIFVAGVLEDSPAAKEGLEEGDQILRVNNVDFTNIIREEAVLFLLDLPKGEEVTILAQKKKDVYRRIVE
# Chain of DLG4_3, P78352 (P78352 306-403): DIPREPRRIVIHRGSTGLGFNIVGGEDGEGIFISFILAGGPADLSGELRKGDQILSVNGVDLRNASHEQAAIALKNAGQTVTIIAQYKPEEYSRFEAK
# Chain of Inadl_8, Q8NI35 (Q8NI35 1425-1530): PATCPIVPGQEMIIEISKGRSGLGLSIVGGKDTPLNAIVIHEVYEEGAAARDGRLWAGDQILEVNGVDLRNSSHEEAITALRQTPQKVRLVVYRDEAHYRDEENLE
# Chain of DLG4_2, P78352 (P78352 155-259): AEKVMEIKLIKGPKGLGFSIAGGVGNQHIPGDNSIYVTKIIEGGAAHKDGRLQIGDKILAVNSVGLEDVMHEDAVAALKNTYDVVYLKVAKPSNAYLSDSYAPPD
# Chain of GRID2IP_1, A4D2P6 (A4D2P6 1-87): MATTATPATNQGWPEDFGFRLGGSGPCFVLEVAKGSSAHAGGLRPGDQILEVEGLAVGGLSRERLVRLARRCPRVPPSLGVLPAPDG
# Chain of MAGI1_1, Q96QZ7 (Q96QZ7 1-106): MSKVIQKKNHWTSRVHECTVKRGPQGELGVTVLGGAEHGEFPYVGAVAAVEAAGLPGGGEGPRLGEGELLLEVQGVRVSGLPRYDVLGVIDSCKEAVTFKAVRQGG
# Chain of CASK, O14936 (O14936 487-570): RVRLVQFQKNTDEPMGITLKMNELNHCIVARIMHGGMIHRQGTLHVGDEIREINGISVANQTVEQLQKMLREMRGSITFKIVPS
# Chain of GRIP2_3, Q9C0E4 (Q9C0E4 238-339): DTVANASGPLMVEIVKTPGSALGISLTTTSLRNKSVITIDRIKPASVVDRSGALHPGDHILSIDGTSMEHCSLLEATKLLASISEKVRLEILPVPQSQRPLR
# Chain of MAST1, Q9Y2H9 (Q9Y2H9 962-1065): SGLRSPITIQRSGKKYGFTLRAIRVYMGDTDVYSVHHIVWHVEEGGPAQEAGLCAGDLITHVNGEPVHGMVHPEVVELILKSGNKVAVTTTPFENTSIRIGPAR
# Chain of FRMPD2_2, Q68DX3 (Q68DX3 944-1038): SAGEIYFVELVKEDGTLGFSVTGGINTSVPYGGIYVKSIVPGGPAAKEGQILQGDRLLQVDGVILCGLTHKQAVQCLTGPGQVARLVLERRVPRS
# Chain of PDZRN4_1, Q6ZMN7 (Q6ZMN7 213-318): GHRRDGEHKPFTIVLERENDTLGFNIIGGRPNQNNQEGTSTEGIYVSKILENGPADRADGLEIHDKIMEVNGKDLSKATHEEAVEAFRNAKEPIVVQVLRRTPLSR
# Chain of NHERF2_2, Q15599 (Q15599 142-238): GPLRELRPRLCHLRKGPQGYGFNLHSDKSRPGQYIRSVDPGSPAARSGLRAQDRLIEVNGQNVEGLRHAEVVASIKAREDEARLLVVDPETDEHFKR
# Chain of MAGI1_2, Q96QZ7 (Q96QZ7 456-580): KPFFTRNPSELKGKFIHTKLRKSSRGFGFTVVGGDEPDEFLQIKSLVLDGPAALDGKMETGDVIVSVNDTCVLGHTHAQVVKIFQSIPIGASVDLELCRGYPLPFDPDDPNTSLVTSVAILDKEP
Binder,"pKd (APBA1_1, Q02410)","pKd (APBA2_2, Q99767)","pKd (CASK, O14936)","pKd (DFNB31_2, Q9P202)","pKd (DFNB31_3, Q9P202)","pKd (DLG4_2, P78352)","pKd (DLG4_3, P78352)","pKd (FRMPD2_2, Q68DX3)","pKd (GOPC, Q9HD26)","pKd (GRID2IP_1, A4D2P6)","pKd (GRIP1_3, Q9Y3R0)","pKd (GRIP1_7, Q9Y3R0)","pKd (GRIP2_3, Q9C0E4)","pKd (Inadl_8, Q8NI35)","pKd (MAGI1_1, Q96QZ7)","pKd (MAGI1_2, Q96QZ7)","pKd (MAST1, Q9Y2H9)","pKd (MPDZ_12, O75970)","pKd (MPP6, Q9NZW5)","pKd (NHERF2_2, Q15599)",further results
"TASPAKETSF [SLC2A7, Q6PXP3]",below the threshold,below the threshold,below the threshold,below the threshold,3.88,4.11,below the threshold,below the threshold,below the threshold,below the threshold,below the threshold,below the threshold,below the threshold,below the threshold,below the threshold,below the threshold,4.55,below the threshold,below the threshold,4.66,"pKd (PDZD7_3, Q9H5P4): below the threshold; pKd (PDZRN4_1, Q6ZMN7): below the threshold; pKd (PTPN13_1, Q12923): below the threshold; pKd (SHANK1, Q9Y566): below the threshold; pKd (SYNJ2BP, P57105): below the threshold; pKd (TJP1_3, Q07157): below the threshold"
"RKPKPSSSCC [RAB9A, P51151]",below the threshold,below the threshold,below the threshold,below the threshold,3.9,below the threshold,below the threshold,below the threshold,below the threshold,below the threshold,below the threshold,below the threshold,below the threshold,below the threshold,below the threshold,3.64,below the threshold,below the threshold,3.51,below the threshold,"pKd (PDZD7_3, Q9H5P4): 3.76; pKd (PDZRN4_1, Q6ZMN7): below the threshold; pKd (PTPN13_1, Q12923): below the threshold; pKd (SHANK1, Q9Y566): below the threshold; pKd (SYNJ2BP, P57105): below the threshold; pKd (TJP1_3, Q07157): below the threshold"
"LKVPPEERLI [CRB2, Q5IJ48]",below the threshold,below the threshold,below the threshold,below the threshold,below the threshold,below the threshold,below the threshold,below the threshold,below the threshold,below the threshold,below the threshold,below the threshold,below the threshold,below the threshold,below the threshold,below the threshold,3.58,below the threshold,3.68,below the threshold,"pKd (PDZD7_3, Q9H5P4): below the threshold; pKd (PDZRN4_1, Q6ZMN7): below the threshold; pKd (PTPN13_1, Q12923): below the threshold; pKd (SHANK1, Q9Y566): below the threshold; pKd (SYNJ2BP, P57105): below the threshold; pKd (TJP1_3, Q07157): below the threshold"
"YRLAQESGLV [ABCC6, O95255]",below the threshold,below the threshold,below the threshold,below the threshold,3.94,3.55,below the threshold,below the threshold,below the threshold,below the threshold,below the threshold,below the threshold,below the threshold,below the threshold,below the threshold,below the threshold,3.59,below the threshold,3.74,below the threshold,"pKd (PDZD7_3, Q9H5P4): 4.01; pKd (PDZRN4_1, Q6ZMN7): below the threshold; pKd (PTPN13_1, Q12923): below the threshold; pKd (SHANK1, Q9Y566): below the threshold; pKd (SYNJ2BP, P57105): below the threshold; pKd (TJP1_3, Q07157): below the threshold"
"ETQVTAETVI [TMEM225B, P0DP42]",below the threshold,below the threshold,below the threshold,below the threshold,4.03,4.05,below the threshold,below the threshold,below the threshold,below the threshold,below the threshold,below the threshold,below the threshold,below the threshold,below the threshold,below the threshold,4.31,below the threshold,below the threshold,below the threshold,"pKd (PDZD7_3, Q9H5P4): 5.23; pKd (PDZRN4_1, Q6ZMN7): below the threshold; pKd (PTPN13_1, Q12923): below the threshold; pKd (SHANK1, Q9Y566): below the threshold; pKd (SYNJ2BP, P57105): 3.92; pKd (TJP1_3, Q07157): below the threshold"
